# Results as given in patent US20240392262A1, “TRANSPOSASE AND USES THEREOF” (Poseida Therapeutics, Inc., published 2024).
# T1: PAH6 Right TAL-PBx (synthetic construct)
# T1 chain: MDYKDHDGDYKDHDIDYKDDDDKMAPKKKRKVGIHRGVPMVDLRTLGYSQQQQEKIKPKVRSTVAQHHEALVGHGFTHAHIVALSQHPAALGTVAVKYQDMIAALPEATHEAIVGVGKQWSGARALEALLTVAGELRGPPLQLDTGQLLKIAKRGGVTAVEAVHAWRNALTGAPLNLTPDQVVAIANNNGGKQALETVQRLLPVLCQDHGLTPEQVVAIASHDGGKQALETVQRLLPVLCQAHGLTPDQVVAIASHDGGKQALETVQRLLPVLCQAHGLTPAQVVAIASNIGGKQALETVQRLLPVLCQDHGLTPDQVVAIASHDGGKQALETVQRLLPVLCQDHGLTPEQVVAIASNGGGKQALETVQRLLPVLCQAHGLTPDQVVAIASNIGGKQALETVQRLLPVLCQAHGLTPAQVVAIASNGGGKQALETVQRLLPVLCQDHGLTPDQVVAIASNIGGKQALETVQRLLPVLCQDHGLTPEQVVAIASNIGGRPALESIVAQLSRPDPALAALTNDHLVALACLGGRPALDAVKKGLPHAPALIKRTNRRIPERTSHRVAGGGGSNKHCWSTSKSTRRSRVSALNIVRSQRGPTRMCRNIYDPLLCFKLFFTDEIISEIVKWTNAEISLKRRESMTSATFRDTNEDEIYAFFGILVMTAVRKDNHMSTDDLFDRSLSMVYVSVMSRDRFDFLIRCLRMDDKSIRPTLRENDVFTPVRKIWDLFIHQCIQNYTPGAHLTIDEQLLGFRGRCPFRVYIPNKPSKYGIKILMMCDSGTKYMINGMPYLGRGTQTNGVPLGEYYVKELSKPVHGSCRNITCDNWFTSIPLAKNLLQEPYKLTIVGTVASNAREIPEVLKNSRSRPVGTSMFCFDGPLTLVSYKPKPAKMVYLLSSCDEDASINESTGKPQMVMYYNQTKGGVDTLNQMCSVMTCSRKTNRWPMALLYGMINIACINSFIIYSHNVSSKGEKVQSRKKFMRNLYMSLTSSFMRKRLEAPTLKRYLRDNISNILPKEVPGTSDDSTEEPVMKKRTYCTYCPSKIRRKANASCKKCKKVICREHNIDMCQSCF
# T2: PAH6 Left TAL-PBx (synthetic construct)
# T2 chain: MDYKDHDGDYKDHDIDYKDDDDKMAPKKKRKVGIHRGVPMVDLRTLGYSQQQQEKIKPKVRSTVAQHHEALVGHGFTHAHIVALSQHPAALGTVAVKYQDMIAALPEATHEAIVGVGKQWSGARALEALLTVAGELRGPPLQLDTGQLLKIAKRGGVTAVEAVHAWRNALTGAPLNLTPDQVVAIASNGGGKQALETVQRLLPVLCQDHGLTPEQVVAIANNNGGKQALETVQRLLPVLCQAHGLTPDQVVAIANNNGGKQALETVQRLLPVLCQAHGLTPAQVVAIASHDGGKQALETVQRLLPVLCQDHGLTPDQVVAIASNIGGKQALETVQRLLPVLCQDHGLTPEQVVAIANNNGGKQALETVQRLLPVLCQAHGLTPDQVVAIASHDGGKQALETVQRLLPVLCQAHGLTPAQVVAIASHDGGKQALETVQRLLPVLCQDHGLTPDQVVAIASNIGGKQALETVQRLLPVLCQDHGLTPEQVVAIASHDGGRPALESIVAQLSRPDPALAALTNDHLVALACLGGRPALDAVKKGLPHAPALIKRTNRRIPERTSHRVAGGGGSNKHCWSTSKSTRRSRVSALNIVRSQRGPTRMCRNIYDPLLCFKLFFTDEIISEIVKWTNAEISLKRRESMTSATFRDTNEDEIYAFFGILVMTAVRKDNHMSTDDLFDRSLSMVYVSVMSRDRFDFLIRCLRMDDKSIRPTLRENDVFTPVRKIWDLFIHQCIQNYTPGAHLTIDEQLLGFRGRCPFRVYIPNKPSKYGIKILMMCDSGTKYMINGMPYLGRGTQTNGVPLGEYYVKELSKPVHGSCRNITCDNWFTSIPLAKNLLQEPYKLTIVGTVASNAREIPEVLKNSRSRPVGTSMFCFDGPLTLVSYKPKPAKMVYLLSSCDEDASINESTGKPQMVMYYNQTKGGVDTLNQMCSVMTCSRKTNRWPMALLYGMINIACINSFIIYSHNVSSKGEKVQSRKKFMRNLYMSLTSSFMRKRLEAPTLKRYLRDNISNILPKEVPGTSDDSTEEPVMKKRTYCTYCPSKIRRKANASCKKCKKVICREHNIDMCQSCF
# B1: PAH6 target (dsDNA)
# DNA 1: TTGGCAGCCACTGTCCTAAATATTTTAACCAAATCAAAATCTTATAGTGGCA
# DNA 2: TGCCACTATAAGATTTTGATTTGGTTAAAATATTTAGGACAGTGGCTGCCAA
# Columns and labels:
# PAH6 Right TAL-PBx = target: T1, PAH6 Right TAL-PBx; experiment: cell_activity; right only; details: tags: 3xFlag, SV40 NLS
# PAH6 Left TAL-PBx = target: T2, PAH6 Left TAL-PBx; experiment: cell_activity; left only; details: tags: 3xFlag, SV40 NLS
binder,measurement,setting,value
B1,activity,PAH6 Right TAL-PBx,2.5 % GFP+
same,activity,PAH6 Left TAL-PBx,2.7 % GFP+
